The values that follow come from publication PMC9464890, “Exosite binding modulates the specificity of the immunomodulatory enzyme ScpA, a C5a inactivating bacterial protease” (Computational and Structural Biotechnology Journal, 2022).

Residue numbers refer to the chain shown, from its start. Names and notes keep the numbering of the source.

In one assay the target is C5a (Homo sapiens) (UniProt P01031). Kind of assay: SPR. Particulars: cited from earlier work.
The target in assay [1] is T1, ScpAΔFn123 (Streptococcus pyogenes) (UniProt P15926).
T1 sequence: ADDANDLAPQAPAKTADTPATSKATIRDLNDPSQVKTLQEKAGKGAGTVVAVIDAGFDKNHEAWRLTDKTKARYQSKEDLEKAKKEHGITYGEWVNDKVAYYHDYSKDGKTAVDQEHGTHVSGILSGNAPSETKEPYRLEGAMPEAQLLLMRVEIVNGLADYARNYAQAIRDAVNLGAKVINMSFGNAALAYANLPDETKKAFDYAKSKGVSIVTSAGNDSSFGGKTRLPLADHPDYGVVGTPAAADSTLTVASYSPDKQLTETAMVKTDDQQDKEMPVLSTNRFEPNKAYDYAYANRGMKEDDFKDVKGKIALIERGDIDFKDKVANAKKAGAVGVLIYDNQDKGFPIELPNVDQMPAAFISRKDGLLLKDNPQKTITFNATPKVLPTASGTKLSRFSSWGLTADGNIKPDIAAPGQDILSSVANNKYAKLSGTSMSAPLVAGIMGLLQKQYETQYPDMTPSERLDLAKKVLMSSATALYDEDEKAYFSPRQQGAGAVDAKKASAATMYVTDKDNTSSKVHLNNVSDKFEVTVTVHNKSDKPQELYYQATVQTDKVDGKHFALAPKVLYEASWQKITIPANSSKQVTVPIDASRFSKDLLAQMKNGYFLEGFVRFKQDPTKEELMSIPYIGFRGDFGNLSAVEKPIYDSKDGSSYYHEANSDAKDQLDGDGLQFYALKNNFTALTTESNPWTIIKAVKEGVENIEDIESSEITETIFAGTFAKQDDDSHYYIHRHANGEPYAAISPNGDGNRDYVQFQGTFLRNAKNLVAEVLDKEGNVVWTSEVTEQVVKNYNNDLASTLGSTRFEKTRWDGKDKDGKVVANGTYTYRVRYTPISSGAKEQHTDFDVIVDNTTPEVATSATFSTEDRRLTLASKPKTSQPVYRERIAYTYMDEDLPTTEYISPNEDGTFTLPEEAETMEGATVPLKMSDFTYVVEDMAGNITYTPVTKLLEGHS

In the next assay the target is rhC5a_(R46A) (human). Kind of assay: SPR; BIAcore X100, NTA sensor chip with about 20-25 RU of immobilised His-tagged C5a form (ligand), ScpA form flowed as ligate at 30 uL/min, 25 °C, 10 mM Hepes-KOH pH 7.4, 150 mM NaCl, 0.005% Tween 20, 50 uM EDTA; global fit, 1:1 Langmuir model with drifting baseline; triplicate.
Another assay addresses rhC5a_(core) (human). Described as above.
For another assay, the target named is R46A_(core) (human). The description is as above.
The next assay addresses rhC5a_(R40A) (human). Described as above.
The next assay addresses R40A_(core) (human). Described as above.
The next assay concerns the target rhC5a_(R37A) (human). The assay is described as above.
The target of the next assay is R37A_(core) (human). The description is as above.

Chain of C5a (Homo sapiens) (P01031 678-751): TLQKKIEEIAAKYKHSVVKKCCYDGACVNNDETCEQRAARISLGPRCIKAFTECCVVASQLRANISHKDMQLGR

ScpA (from UniProt P58099): in the assay with C5a (Homo sapiens), the Kd is 0.035 µM.

B1: Fn123 (domain or fragment)
chain: T1 sequence
As to B1, in assay [1], the C5a-ase activity of ScpAΔFn123 complemented with Fn123, end-point assay, relative to the wild-type enzyme (data not shown) turned out to be 0.1%.

B2: ScpA_(S512A) (enzyme)
chain: ANTVTEDTPVTEQAVETPQPTAVSEEVPSSKETKTPQTPDDAEETIADDANDLAPQAPAKTADTPATSKATIRDLNDPSQVKTLQEKAGKGAGTVVAVIDAGFDKNHEAWRLTDKTKARYQSKEDLEKAKKEHGITYGEWVNDKVAYYHDYSKDGKTAVDQEHGTHVSGILSGNAPSETKEPYRLEGAMPEAQLLLMRVEIVNGLADYARNYAQAIRDAVNLGAKVINMSFGNAALAYANLPDETKKAFDYAKSKGVSIVTSAGNDSSFGGKTRLPLADHPDYGVVGTPAAADSTLTVASYSPDKQLTETAMVKTDDQQDKEMPVLSTNRFEPNKAYDYAYANRGMKEDDFKDVKGKIALIERGDIDFKDKVANAKKAGAVGVLIYDNQDKGFPIELPNVDQMPAAFISRKDGLLLKDNPQKTITFNATPKVLPTASGTKLSRFSSWGLTADGNIKPDIAAPGQDILSSVANNKYAKLSGTAMSAPLVAGIMGLLQKQYETQYPDMTPSERLDLAKKVLMSSATALYDEDEKAYFSPRQQGAGAVDAKKASAATMYVTDKDNTSSKVHLNNVSDKFEVTVTVHNKSDKPQELYYQATVQTDKVDGKHFALAPKVLYEASWQKITIPANSSKQVTVPIDASRFSKDLLAQMKNGYFLEGFVRFKQDPTKEELMSIPYIGFRGDFGNLSAVEKPIYDSKDGSSYYHEANSDAKDQLDGDGLQFYALKNNFTALTTESNPWTIIKAVKEGVENIEDIESSEITETIFAGTFAKQDDDSHYYIHRHANGEPYAAISPNGDGNRDYVQFQGTFLRNAKNLVAEVLDKEGNVVWTSEVTEQVVKNYNNDLASTLGSTRFEKTRWDGKDKDGKVVANGTYTYRVRYTPISSGAKEQHTDFDVIVDNTTPEVATSATFSTEDRRLTLASKPKTSQPVYRERIAYTYMDEDLPTTEYISPNEDGTFTLPEEAETMEGATVPLKMSDFTYVVEDMAGNITYTPVTKLLEGHS
For B2, the Kd is 0.22 µM with rhC5a_(R46A) (human); 0.17 µM with rhC5a_(core) (human); 0.691 µM with R46A_(core) (human); 0.29 µM in the assay with rhC5a_(R40A) (human); 1.34 µM with R40A_(core) (human); 0.217 µM in the assay with rhC5a_(R37A) (human). The same molecule gave a Kd in the assay with R37A_(core) (human) of 0.453 µM. The koff worked out at 0.0226 s⁻¹ in the assay with rhC5a_(R46A) (human); 0.0075 s⁻¹ in the assay with rhC5a_(core) (human); 0.0152 s⁻¹ with R46A_(core) (human); 0.0274 s⁻¹ with rhC5a_(R40A) (human); 0.0258 s⁻¹ in the assay with R40A_(core) (human); 0.0176 s⁻¹ with rhC5a_(R37A) (human). In the assay with R37A_(core) (human), this molecule showed a koff of 0.0151 s⁻¹. For the same molecule, the kon amounted to 103000 M⁻¹ s⁻¹ with rhC5a_(R46A) (human); 45000 M⁻¹ s⁻¹ with rhC5a_(core) (human); 22000 M⁻¹ s⁻¹ in the assay with R46A_(core) (human); 94400 M⁻¹ s⁻¹ in the assay with rhC5a_(R40A) (human); 19300 M⁻¹ s⁻¹ with R40A_(core) (human); 81200 M⁻¹ s⁻¹ with rhC5a_(R37A) (human). The kon with R37A_(core) (human) amounted to 33300 M⁻¹ s⁻¹.

B3: ScpA_(S512A,D889A) (enzyme)
chain: B2 chain with D859A
In the case of B3, the Kd with rhC5a_(R46A) (human) worked out at 0.0866 µM; in the assay with rhC5a_(core) (human), 0.09 µM; in the assay with R46A_(core) (human), 0.965 µM; with rhC5a_(R40A) (human), 0.0949 µM; in the assay with R40A_(core) (human), 0.734 µM; in the assay with rhC5a_(R37A) (human), 0.0683 µM. In the assay with R37A_(core) (human), this molecule had a Kd of 0.384 µM. The koff was 0.0129 s⁻¹ with rhC5a_(R46A) (human); 0.004 s⁻¹ in the assay with rhC5a_(core) (human); 0.0121 s⁻¹ with R46A_(core) (human); 0.0259 s⁻¹ with rhC5a_(R40A) (human); 0.0182 s⁻¹ with R40A_(core) (human); 0.00934 s⁻¹ in the assay with rhC5a_(R37A) (human). In the assay with R37A_(core) (human), this molecule showed a koff of 0.0115 s⁻¹. The kon with rhC5a_(R46A) (human) stood at 148000 M⁻¹ s⁻¹; with rhC5a_(core) (human) it was 44400 M⁻¹ s⁻¹; with R46A_(core) (human), 12500 M⁻¹ s⁻¹; with rhC5a_(R40A) (human) it was 273000 M⁻¹ s⁻¹; with R40A_(core) (human), 24800 M⁻¹ s⁻¹; in the assay with rhC5a_(R37A) (human), 137000 M⁻¹ s⁻¹. This molecule returned a kon with R37A_(core) (human) of 30100 M⁻¹ s⁻¹.

B4: ScpA_(S512A,E864A) (enzyme)
chain: B2 chain with E834A
Regarding B4, the Kd with rhC5a_(R46A) (human) amounted to 0.0621 µM; in the assay with rhC5a_(core) (human) it was 0.0887 µM; with R46A_(core) (human) it was 0.624 µM; with rhC5a_(R40A) (human) it was 0.346 µM; with R40A_(core) (human) it was 0.751 µM; with rhC5a_(R37A) (human), 0.0671 µM. For the same molecule, in the assay with R37A_(core) (human), the Kd was found to be 0.532 µM. Also, the koff in the assay with rhC5a_(R46A) (human) was 0.0213 s⁻¹; with rhC5a_(core) (human), 0.00438 s⁻¹; with R46A_(core) (human), 0.0132 s⁻¹; in the assay with rhC5a_(R40A) (human), 0.0271 s⁻¹; with R40A_(core) (human) it was 0.0195 s⁻¹; in the assay with rhC5a_(R37A) (human), 0.0101 s⁻¹. Further, in the assay with R37A_(core) (human), the koff amounted to 0.0121 s⁻¹. The kon in the assay with rhC5a_(R46A) (human) turned out to be 344000 M⁻¹ s⁻¹; in the assay with rhC5a_(core) (human) it was 49300 M⁻¹ s⁻¹; with R46A_(core) (human) it was 21200 M⁻¹ s⁻¹; in the assay with rhC5a_(R40A) (human) it was 78500 M⁻¹ s⁻¹; in the assay with R40A_(core) (human), 26100 M⁻¹ s⁻¹; with rhC5a_(R37A) (human), 150000 M⁻¹ s⁻¹. Besides, the kon with R37A_(core) (human) amounted to 22800 M⁻¹ s⁻¹.
